Among the data in patent US20180251489A1 are Ki values, retold here.

In the assay the target is mucosa-associated lymphoid tissue lymphoma translocation protein 1 (UniProt Q9UDY8). The assay can be described thus: enzyme inhibition assay, 100 nM MALT1.
mucosa-associated lymphoid tissue lymphoma translocation protein 1, sequence (Q9UDY8 340-789): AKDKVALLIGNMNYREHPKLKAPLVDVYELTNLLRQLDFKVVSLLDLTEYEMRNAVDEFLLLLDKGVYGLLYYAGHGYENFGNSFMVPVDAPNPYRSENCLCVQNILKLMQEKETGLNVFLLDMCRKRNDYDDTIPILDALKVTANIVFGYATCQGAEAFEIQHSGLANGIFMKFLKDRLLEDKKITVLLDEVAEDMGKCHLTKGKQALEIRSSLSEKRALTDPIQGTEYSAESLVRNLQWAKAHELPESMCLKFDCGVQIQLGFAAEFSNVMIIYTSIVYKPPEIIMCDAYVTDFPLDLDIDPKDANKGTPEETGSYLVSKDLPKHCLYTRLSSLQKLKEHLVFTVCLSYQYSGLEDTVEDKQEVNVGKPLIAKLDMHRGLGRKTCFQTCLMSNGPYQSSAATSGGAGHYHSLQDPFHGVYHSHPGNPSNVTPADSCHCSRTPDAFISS
Consider “N-((S)-1-((S)-2-(((S)-1-fluoro-6-guanidino-2-oxohexan-3-yl)carbamoyl)pyrrolidin-1-yl)-3-methyl-1-oxobutan-2-yl)quinoline-3-carboxamide (peptide)”, for which the inhibition constant (Ki) (as a rule, the dissociation constant of the complex between target and ligand, obtained from inhibition or displacement) turned out to be 0.04 µM. The figure for “Benzyl ((S)-1-cyclohexyl-2-((S)-2-(((S)-1-fluoro-6-guanidino-2-oxohexan-3-yl)carbamoyl)pyrrolidin-1-yl)-2-oxoethyl)carbamate (peptide)” is 0.044 µM; for “(S)-N-((S)-1-Fluoro-6-guanidino-2-oxohexan-3-yl)-1-((3-phenylpropanoyl)-L-valyl)pyrrolidine-2-carboxamide (peptide)” it is 0.043 µM.

The substance “(S)-1-((3-acetamidobenzoyl)-L-valyl)-N-((S)-1-fluoro-6-guanidino-2-oxohexan-3-yl)pyrrolidine-2-carboxamide (peptide)” returned an inhibition constant (Ki) of 0.054 µM. The figure for “4-bromo-N-((S)-1-(((S)-1-(((S)-1-fluoro-6-guanidino-2-oxohexan-3-yl)amino)-3-hydroxy-1-oxopropan-2-yl)amino)-3-methyl-1-oxobutan-2-yl)benzamide (peptide)” is 0.064 µM; for “Benzyl ((S)-1-((S)-2-(((S)-1-fluoro-6-guanidino-2-oxohexan-3-yl)carbamoyl)pyrrolidin-1-yl)-3-methyl-1-oxobutan-2-yl)carbamate 2,2,2-trifluoroacetate (peptide)” it is 0.04 µM. For the substance “(S)-N-((S)-1-fluoro-6-guanidino-2-oxohexan-3-yl)-1-((4-(trifluoromethoxy)benzoyl)-L-valyl)pyrrolidine-2-carboxamide (peptide)”, the Ki came to 0.027 µM. For the substance “2-Chlorobenzyl ((S)-1-((S)-2-(((S)-1-fluoro-6-guanidino-2-oxohexan-3-yl)carbamoyl)pyrrolidin-1-yl)-3-methyl-1-oxobutan-2-yl)carbamate (peptide)”, the Ki was found to be 0.027 µM. The figure for “Benzyl ((S)-1-cyclohexyl-2-((S)-2-(((S)-1-fluoro-6-guanidino-2-oxohexan-3-yl)carbamoyl)piperidin-1-yl)-2-oxoethyl)carbamate (peptide)” is 0.037 µM; for “Benzyl ((R)-2-((S)-2-(((S)-1-fluoro-6-guanidino-2-oxohexan-3-yl)carbamoyl)pyrrolidin-1-yl)-2-oxo-1-(pyridin-3-yl)ethyl)carbamate (peptide)” it is 0.146 µM. As for “(S)-1-(((4-Bromophenyl)sulfonyl)-L-valyl)-N-((S)-1-fluoro-6-guanidino-2-oxohexan-3-yl)pyrrolidine-2-carboxamide (peptide)”, the Ki was 0.066 µM. Then “(2S,4R)-1-((4-Bromobenzoyl)-L-valyl)-N-((S)-1-fluoro-6-guanidino-2-oxohexan-3-yl)-4-hydroxypyrrolidine-2-carboxamide (peptide)”, with 0.05 µM; and “4-Bromo-N-((S)-1-(((S)-1-(((S)-1-fluoro-6-guanidino-2-oxohexan-3-yl)amino)-1-oxopropan-2-yl)amino)-3-methyl-1-oxobutan-2-yl)benzamide (peptide)”, with 0.038 µM; and “Benzyl ((S)-1-((S)-2-(((S)-1-fluoro-6-guanidino-2-oxohexan-3-yl)carbamoyl)pyrrolidin-1-yl)-3,3-dimethyl-1-oxobutan-2-yl)carbamate (peptide)”, with 0.043 µM.

As to “(S)-1-(((4-Chlorophenyl)carbamoyl)-L-valyl)-N-((S)-1-fluoro-6-guanidino-2-oxohexan-3-yl)pyrrolidine-2-carboxamide (peptide)”, the Ki worked out at 0.062 µM. The figure for “N-((S)-1-((S)-2-(((S)-1-fluoro-6-guanidino-2-oxohexan-3-yl)carbamoyl)pyrrolidin-1-yl)-3-methyl-1-oxobutan-2-yl)quinoline-4-carboxamide (peptide)” is 0.139 µM. “(S)-1-((3-cyanobenzoyl)-L-valyl)-N-((S)-1-fluoro-6-guanidino-2-oxohexan-3-yl)pyrrolidine-2-carboxamide (peptide)” gave a Ki of 0.039 µM. The substance “(2S,4R)-1-((S)-2-(4-Bromobenzamido)-2-cyclohexylacetyl)-N-((S)-1-fluoro-6-guanidino-2-oxohexan-3-yl)-4-hydroxypyrrolidine-2-carboxamide (peptide)” registered a Ki of 0.034 µM. Substance “(S)-1-((4-Bromobenzoyl)-L-valyl)-N-((S)-1-fluoro-6-guanidino-2-oxohexan-3-yl)azetidine-2-carboxamide (peptide)” gave an inhibition constant Ki of 0.118 µM. The figure for “(S)-1-((Cyclohexanecarbonyl)-L-valyl)-N-((S)-1-fluoro-6-guanidino-2-oxohexan-3-yl)pyrrolidine-2-carboxamide (peptide)” is 0.056 µM; for “(S)-N-((S)-1-fluoro-6-guanidino-2-oxohexan-3-yl)-1-((3-(4-methylpiperazin-1-yl)benzoyl)-L-valyl)pyrrolidine-2-carboxamide (peptide)” it is 0.175 µM. Then “4-Chlorobenzyl ((S)-1-((S)-2-(((S)-1-fluoro-6-guanidino-2-oxohexan-3-yl)carbamoyl)pyrrolidin-l-yl)-3-methyl-1-oxobutan-2-yl)carbamate (peptide)”, with 0.032 µM; and “(2S,4R)-1-((4-Bromobenzoyl)-L-valyl)-4-cyano-N-((S)-1-fluoro-6-guanidino-2-oxohexan-3-yl)pyrrolidine-2-carboxamide (peptide)”, with 0.028 µM; and “(S)-1-((4-Cyanobenzoyl)-L-valyl)-N-((S)-1-fluoro-6-guanidino-2-oxohexan-3-yl)pyrrolidine-2-carboxamide (peptide)”, with 0.06 µM.

In the case of “(S)-1-((4-bromobenzoyl)-L-valyl)-N-((S)-1-fluoro-6-guanidino-2-oxohexan-3-yl)piperidine-2-carboxamide (peptide)”, the Ki amounted to 0.079 µM. The figure for “N-((S)-1-((S)-2-(((S)-1-fluoro-6-guanidino-2-oxohexan-3-yl)carbamoyl)pyrrolidin-1-yl)-3-methyl-1-oxobutan-2-yl)isoquinoline-7-carboxamide (peptide)” is 0.11 µM. Then “(S)-1-((4-Bromo-2-fluorobenzoyl)-L-valyl)-N-((S)-1-fluoro-6-guanidino-2-oxohexan-3-yl)pyrrolidine-2-carboxamide (peptide)”, with 0.071 µM; and “(S)-1-((S)-2-(4-Bromobenzamido)-3-cyclohexylpropanoyl)-N-((S)-1-fluoro-6-guanidino-2-oxohexan-3-yl)pyrrolidine-2-carboxamide (peptide)”, with 0.122 µM. Then “Benzyl ((2S,3R)-1-((S)-2-(((S)-1-fluoro-6-guanidino-2-oxohexan-3-yl)carbamoyl)pyrrolidin-1-yl)-3-methyl-1-oxopentan-2-yl)carbamate (peptide)”, with 0.03 µM; and “(S)-3-((4-Bromobenzoyl)-L-valyl)-N-((S)-1-fluoro-6-guanidino-2-oxohexan-3-yl)oxazolidine-4-carboxamide (peptide)”, with 0.02 µM; and “Benzyl ((S)-1-((2S,4R)-2-(((S)-1-fluoro-6-guanidino-2-oxohexan-3-yl)carbamoyl)-4-hydroxypyrrolidin-1-yl)-3-methyl-1-oxobutan-2-yl)carbamate (peptide)”, with 0.053 µM. For “Benzyl ((S)-2-((S)-2-(((S)-1-fluoro-6-guanidino-2-oxohexan-3-yl)carbamoyl)pyrrolidin-1-yl)-2-oxo-1-(pyridin-3-yl)ethyl)carbamate (peptide)”, the Ki was 0.055 µM.

In the case of “(S)-1-(Benzoyl-L-valyl)-N-((S)-1-fluoro-6-guanidino-2-oxohexan-3-yl)pyrrolidine-2-carboxamide (peptide)”, the inhibitory constant (Ki) came out at 0.04 µM.

Take “(S)-N-((S)-1-Fluoro-6-guanidino-2-oxohexan-3-yl)-1-((3-methoxybenzoyl)-L-valyl)pyrrolidine-2-carboxamide (peptide)”: the Ki came to 0.075 µM.

Turning to “(S)-1-((4-Bromo-2-methylbenzoyl)-L-valyl)-N-((S)-1-fluoro-6-guanidino-2-oxohexan-3-yl)pyrrolidine-2-carboxamide (peptide)”, the Ki amounted to 0.04 µM.

Substance “(S)-1-((2-(3-Bromophenyl)acetyl)-L-valyl)-N-((S)-1-fluoro-6-guanidino-2-oxohexan-3-yl)pyrrolidine-2-carboxamide (peptide)” returned a Ki of 0.046 µM. Turning to “(S)-N-((S)-1-Fluoro-6-guanidino-2-oxohexan-3-yl)-1-((2-phenylacetyl)-L-valyl)pyrrolidine-2-carboxamide (peptide)”, the Ki amounted to 0.042 µM. For “N-((S)-1-((S)-2-(((S)-1-fluoro-6-guanidino-2-oxohexan-3-yl)carbamoyl)pyrrolidin-1-yl)-3-methyl-1-oxobutan-2-yl)isoquinoline-6-carboxamide (peptide)”, the Ki was found to be 0.059 µM.

On to “(S)-1-(cinnamoyl-L-valyl)-N-((S)-1-fluoro-6-guanidino-2-oxohexan-3-yl)pyrrolidine-2-carboxamide (peptide)”, for which the Ki was found to be 0.036 µM.
